Experimental data reported in the DeepSol protein solubility set.

Test: soluble on expression in E. coli; label from the status in PepcDB or PDB records

| Sequence | soluble on expression in E. coli |
| --- | --- |
| VRTHEVVLHRIEQDLAAGKLTVGGRLPAERALAEELGVGRSSVREAMRVLEAMGIVRTAVGSGPDAGAIVAADPAASIGAAIRLHMATRTLPIHDVVQTRTLLESWAVQEAAGQAPDLDFSAIDTLLDAMDDEDLSPEAFHRLDADLHVAMAGLAGNVLVEAMMVSLRDSIHGYVMQAVPLLDDWPAVATHLRCEHRGIVAALRDGHGAEAAGLVREHIEGFYGRFAPVRG | not soluble |
| KPYTIDKANSSVWFEVKHFKFNETRGVFDSFDGKIDADPNTKALNVFEGKIDIKSINTRNKKRDDHLKTAEFFDVVKYPKGSFKMTKYEDGKIHGDLTLHGVTKPVVLEAKIQAPLQNPMNKKEFMVLQAEGKINRKDFGIGKTFSDAVVGDEVKIELKLEAYA | soluble |
| MGSDKIHHHHHHMRLTCAIIDDEPLAVSLLESYVLKTPFLDLQGTYNSALDALSDLRDRPVDLLFLDIQMPELSGLEFSRILNADTRVIFTTAFDQYAVDSYRVNALDYLLKPISYPDFLASANKALRWYELLRKPVSSEEKEGSAPIAEKGGMESIFVKSEYKLLQIELRKILYIEGLKDYVKIFVEDEPRPVLSLMSMKSLEDMLPSDRFVRVHRSFIVQPEKIKVIERNRIVFGKEYIPISDNYKQHFLEMIERRSILPK | not soluble |
| MSLNEIDNKLFLVYVGGTAPGANIELHDIRFVVGPSMEETYPAIRKGWFGTQKGLHLDSFVHLHHVDGYRIHLTSEAHEKPEEKRLYFVNFGGYFPNKLAEYHDFTVVVADSPQSAKQLARAQFSKAGLADAEQIHKDDLLAVDDCLCVDLVDNHYVTLEFDGEQQPLVPDWKGYQPLPEGHHHHHH | soluble |
| MGSDKIHHHHHHMSLDLSTPLQLIGRSVEFQRVVEVLAQDGDLLITGVPGSGRRTLVRWGVTEVRAIALDIDCIRATDGERFLQLLTEAINQNWQAEKIQSWLDKNAKEFFTFHPETKLKLLRSLSQKQIWQAFELLLELPQIMAVDLNKRLVLILQSFPHIRSWDRNGLWEISFRRKIKEHTHVSYVLIATIAETGNYSDENNYPLETIQLPPLNRDVLAVWAREILHGSKLTFDSRSKALQLFLDAVQGHIGDAMAIIRRLQTLCVPDSLVTENDVQQAIEGLLKDLSMTYESLLMLLPANQVHLLECLALDPTEKPQSKDYIQKHGLSRGGSLQGALTGLHHKGLIYGAEQGYLLAMPLLALWLRQRLS | not soluble |
| MREETKCALIIDESLPLGLIANTAAILGAALGKNKPDLIGETVTDGSGIDHLGIVKIPIPILKGNAELLHQLSQKLLTDEFNDILTVDFTDVAQSIHTYEAYIEAFQSTAASDYRYFGIGICGDKKKVARLTGSLGLLRLEHHHHHH | soluble |
| MKFSVLMSLYIKENPQFLRECFESLVAQTRQADEIVLVFDGVVTPDLEFVVTEFETKLPLKLVKLPQNRGLGKALNEGLLHCDYDWVFRMDTDDICVPDRFEKQVAFIEQHPESIIFGGQIAEFGKNVNDIVAYRNVPTSAQEIIKFTQKRCPFNHMTVAYQKSAVINCGGYEDLQEDYYLWIKLVAQGLYMANLPDILVYARVGNGMVSRRRGVNQAKAEWRLFKLKYRLGIQGLLSGLFTFALRFGSRLLPTSLLKKLYQTFLRK | soluble |
| GSMYQLQFINLVYDTTKLTHLEQTNINLFIGNWSNHQLQKSICIRHGDDTSHNQYHILFIDTAHQRIKFSSFDNEEIIYILDYDDTQHILMQTSSKQGIGTSRPIVYERLV | soluble |
| KFGELREISGNQYVNEVTNAEKDLWVVIHLYRSSVPMCLVVNQHLSVLARKFPETKFVKAIVNSCIEHYHDNCLPTIFVYKNGQIEGKFIGIIECGGINLKLEELEWKLSEVGAIQSDLEEN | soluble |
| MALSKVKLNDTLNKDQLLSSSKYTIQRSTGDSIDTPNYDVQKHINKLCGMLLITEDANHKFTGLIGMLYAMSRLGREDTIKILRDAGYHVKANGVDVTTHRQDINGKEMKFEVLTLASLTTEIQINIEIESRKSYKKMLKEMGEVAPEYRHDSPDCGMIILCIAALVITKLAAGDRSGLTAVIRRANNVLKNEMKRYKGLLPKDIANSFYEVFEKHPHFIDVFVHFGIAQSSTRGGSRVEGIFAGLFMNAYGAGQVMLRWGVLAKSVKNIMLGHASVQAEMEQVVEVYEYAQKLGGEAGFYHILNNPKASLLSLTQFPHFSSVVLGNAAGLGIMGEYRGTPRNQDLYDAAKAYAEQLKENGVINYSVLDLTAEELEAIKHQLNPKDNDVEL | soluble |
| QWGSMRMPSDRISSGMAFSSVAQEAGFQNDDIILAVDGRPVDALASGFMRSVIQARQVEVLRQGRREIVHVPHDMMKRVLKANSGFMSIQVPFVIDSVMPQGTAYACQLKAGDSITAVNGKLMPDASDVIGAIRSHAGDTIALSIARAGEELTITLPVDTGGLIGVSLRPLDAIYTIDHIRYSLFEAIPAGIAQGMGTMRSYVSDMKYVFTKEGAGQIGGFGTLGSLFPASWNWPQFWAMTALLS | not soluble |
| MSLENKKMEFWFVVGSQHLYGEEALKEVRKNSETIVDELNKSANLPYKIIFKDLATSADKIKEIMKEVNYRDEVAGVITWMHTFSPAKMWIAGTKILQKPLLHFATQYNENIPWKTIDMDYMNLHQSAHGDREYGFINARLKKHNKVVVGYWKDKEVQKQVSDWMKVAAGYIASESIKVARFGDNMRNVAVTEGDKVEAQIQFGWTVDYFGIGDLVAEMDKVSQDEINKTYEEFKDLYILDPGENDPAFYEKQVKEQIKIEIGLRRFLEKGNYNAFTTNFEDLYGMKQLPGLAVQRLNAEGYGFAGEGDWKTAALDRLLKVMTNNTATGFMEDYTYELSRGNEKALGAHMLEVDPTFASDKPKVIVKPLGIGDKEDPARLIFNGSTGKGVAVSMLDLGTHYRLIINGLTAVKPDEDMPNLPVAKMVWKPEPNFIEGVKSWIYAGGGHHTVVSLELTVEQVYDWSRMVGLEAVIIDKDTKLRDIIEKTTEGHHHHHH | soluble |
| MASDYEAVNTNPYGVSDGELGPLKYGARFMNMQQRVIPIGSPSLTTGPGNDLQNTDLISSGNYIGYFGNNNNWGFNNEANWNFTDSRMNYAYQNFYSQIFLPWNEIYEIAKDSDSPSEQAILEIANIVRNIAWLRATDVFGPIAYNSAGDGSIAPKFDSQEVVYRSMLADLSKSVELLNTISYSVMAQYDLIYNGNVQNWVKLANSLMLRIVVRVHFIDETLAKEYITKALDPKNGGVIEDISSEAKIKSSDKMPLLNSMLASVNEYNETRMGATIWGYLDGYKDPRLSAYFTEGTYGSGSWAQTGYFPVAPTNSKSKSETSYSAKFASRPKVDSNSPLYWFRASETYFLKAEAALYNLIGGDPKTFYEQGINISFQEQGVSGVATYLSGTGKPTGLTGSNYKYGTYNHDLSIGNTSPKWDDYTGNLSKQEEQLQKIITQKYLALYPNAVEAWTEYRRTGFPYLMKPMDEAAPGRIGASIEDCRVPERFRFAPTAYNSNPNMAEIPTLLGGGDIGATKLWWVRSNRPKQPNQ | soluble |
| MGSDKIHHHHHHMVEPSKVVGLISDFGDSPYTGIMRAVIKSISRELQIIDIDHSIPSFSPLAGAYVVAHTYQWLPKGSVIVAVVDPGVGTSRYALAVETENYVFIGPDNGVLYPAAASDGIKRVYALREKDVNSLARMKTSSTAGTVKPWSISRTFHGRDVFAPAGALIAAGHASLEELGDEIEPERMKRASIDHVEKLGPSTFRATVVYIDKFGNVALSIRPKKLGINLSLYKSVVLGTHTTSNTIRMGKTFGDANPGELVAYENSFGHLEIAVNRGNAAKKLGLELEARVEIELLENSGPAPNGSRGVRNADLLGVSSRSLGETIW | not soluble |
| SLTPLRVLIVEDDPRIAQLHQRFCEKVAGFEVSGLAATYEEADELATILEPDLLLLDLYLPDGNGMDLLRQLRSRGQEVDVVLITAAKDVAAVQQALRAGAFDYIVKPAVFARFEEALTKFAAYRQQLEQGDVLNQNDIDQLLHSHHQPKVMDRGAVPKGIDPLTLTKIRQVFADQEQQGLSAEEVGAQIGASRSTARRYLEYMVSISELTADVVYGTVGRPERRYFSFENEG | soluble |
| MQNKIQVKSVEKRENALIFCAENSEIEVKELSARNHVLVDSDNLSFLYILENESSFIYVSIPHTCWEAMHEAMNNDVVMFVRVNDIEMELEGLKEEVEYLVENIEGNANYGEELVTAVEKVFL | not soluble |
| MNKSESRYYATAARMDEAFLTLLAKKDFEYITVKEICEVAGVNRSTFYLHYETMSDLLSESISRINEQFLAYMEKDSDAFSAKLRNCPRDELYLITPDYLTPYLSYIKNNKRLFRTATENAAVLGMDKSYDRMFRHVFTPILDRYGVLQQDRPYIMAFYIRGLMAIISEWLKNDCTDSITYVTGVIQQCVKMPQSETMNAV | not soluble |
| MGSDKIHHHHHHMKICLVSSMHPPHDKRVFDKEAVTLSSNGYKVLHLCPGTASDSGVFNDVEIVPYCRPSGIKGRLLQIFQLYRMANKINADVYHCNEVDSWFVGVLLKILRKKLCVFDVHEHYPSTFAESRFPKWIQPAVSSLVKLIFRLFLPFTDRLVLAKKSVSDDFPNSDSKKVLVRNFTPLSGINFTGVREVVPKGSDVTLIHLGLFGKIRGWPQTLEALKTMKQKNVRLVVIGDFNDGSRADFDSVVSAYGLNDRVVVYDWMPFEDAFKHLMQAHIGLVVFQPGILNHVYAMPHKMFDYMAAGMAVICPEFAMEVAPFVKEAKCGLLVDTANPADLAKKLDELVSSPDLIHEMGVRAQKAVQQHYNWEAEAKHLIQMYKELEELQ | not soluble |
| SDYDADELAEALQPVIVNTPHLKKPIGLIGAKGEFHPVLLAETSFPVQKKLTLKQAKGDFLIGVYEGDHHIEEKTLEPIPKEENAEEDDESEWSDDEPEVVREKLYTLGTKLMELGIKNANGVEIIFNINKDGALRVTARDLKTGNAVKGEL | not soluble |
| MEAEVDKLELMFQKAESDLDYIQYRLEYEIKTNHPDSASEKNPVTLLKELSVIKSRYQTLYARFKPVAVEQKESKSRICATVKKTMNMIQKLQKQTDLELSPLTKEEKTAAEQFKFHMPDL | not soluble |
| MGSDKIHHHHHHMRLILSQCLANLSVRFLMNRNSYNKIAHLWNVARNGFFGREREYLDAILSVAPIGSTILDLGCGTGRPMAEYIVSRGRCVLGVDQSEEMLRLARQKLPHEQWVLSSIESYEPVEGYHGALLWDSLFHIRRTEHELIVSKVVRGLPSGGRLMLTVGGSAHPEFTDFMYGEEFYYDSNTPQETETFLQRLSCRMVIGEYMNLPDGGRDKGRYAIVAEKI | not soluble |
| MVEEQLSLSGVEEIAPKIETPKIEKRTVKERRQQVLTVLIHMLHSERGMERMTTARLAKEVGVSEAALYRYFPSKTKMFEALIEHIESTLLSRITASMRNETQTMNRIHDILQTILDFARKNPGLTRVLTGHALMFEEAQLQARVAQFFDRLEMQFVNILQMRKLREGRAFNVDERIIASHLVTLCEGQFMRYVRTNFRLNSSQSFEQQWRFIEPLFA | not soluble |
| MGSDKIHHHHHHMEKSYWEQAHLQLPLKYTWKISRNASTEKINVIVFLCIDGRTYPGEAAPNVRYGESVELIDLQFKHFQTVWKDSLLQDEHAYNDVLDGLKLCQSLRFALESAYVHARCDKDPAFFERYTGIKMHTSPLATSYTLPIMDPGQIQEFIQTHDLTRFDTLKIKTGKEESKELIKTASRYFDKMIRVDANEAWTDPDLLIKELEELKRIPLEFIEQPFESAQKDAYKYFKKYSKIPVIADESITFAPDLKEIKELFHGVNMKLMKAGGYREGANILLKSKELGLKTMVGCMVETTLGIRSGMWISGHSDYIDLDGSFVIDNEPFKLVSENLGRLVIKQVNFFIEKWQK | not soluble |
| MTPNKEDYLKCIYEIGIDLHKITNKEIAARMQVSPPAVTEMIKRMKSENLILKDKECGYLLTDLGLKLVSELYRKHRLIEVFLVHHLDYTSDQIHEEAEVLEHTVSDLFVERLDKLLGFPKTCPHGGTIPAKGELLVEINNLPLADIKEAGAYRLTRVHDSFDILHYLDKHSLHIGDQLQVKQFDGFSNTFTILSNDEDLQVNMDIAKQLYVEKIN | not soluble |
